Reference: patent publication US20260193317A1, “COMBINATION THERAPY WITH ACTRIIB RECEPTOR VARIANTS AND GLP-1 AGONISTS” (35PHARMA Inc., priority 2023, published 2026)
Where two headings read alike, the source gives them in different places.

Legend:
[1] = molecular target: GLP-1 receptor (GLP-1R) on CHO-K1 cells stably overexpressing GLP-1R (UniProt P43220); experiment: cell-based or functional assay
[2] = molecular target: T1, GIP receptor (GIPR) on CHO-K1 cells stably overexpressing GIPR (UniProt P48546); experiment: cell-based or functional assay
T1 sequence (looked up): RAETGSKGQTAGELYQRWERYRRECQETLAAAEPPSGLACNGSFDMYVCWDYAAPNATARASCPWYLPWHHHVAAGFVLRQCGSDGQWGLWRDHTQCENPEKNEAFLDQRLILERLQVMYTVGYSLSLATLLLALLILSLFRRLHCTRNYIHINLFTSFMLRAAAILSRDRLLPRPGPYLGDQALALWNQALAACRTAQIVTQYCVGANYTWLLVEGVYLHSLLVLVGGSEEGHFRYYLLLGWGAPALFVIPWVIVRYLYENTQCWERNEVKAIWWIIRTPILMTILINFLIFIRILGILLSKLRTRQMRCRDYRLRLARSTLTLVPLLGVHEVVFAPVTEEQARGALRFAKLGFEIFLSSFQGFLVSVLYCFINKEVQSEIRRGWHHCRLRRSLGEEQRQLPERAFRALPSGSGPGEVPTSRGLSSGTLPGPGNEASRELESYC

[3] = molecular target: GLP-1 receptor (GLP-1R) on CHO-K1 cells stably overexpressing GLP-1R (UniProt P43220); experiment: cell-based or functional assay; remark: listed apart in the source
[4] = molecular target: T1, GIP receptor (GIPR) on CHO-K1 cells stably overexpressing GIPR; experiment: cell-based or functional assay; remark: listed apart in the source
DIO mice = experiment: Body composition in high fat diet mice, alone and in combination with incretin mimetics; type: in vivo; conditions: for Fat mass (% change from baseline) / Lean mass (% change from baseline): as E44, NMR
Method: Experiments were performed in vivo to investigate the potential for additive or synergistic effects between exemplary ActRIIB-ECD polypeptide constructs and incretin mimetics.

Chain of GLP-1 receptor (GLP-1R) on CHO-K1 cells stably overexpressing GLP-1R (P43220 24-463 limits assumed): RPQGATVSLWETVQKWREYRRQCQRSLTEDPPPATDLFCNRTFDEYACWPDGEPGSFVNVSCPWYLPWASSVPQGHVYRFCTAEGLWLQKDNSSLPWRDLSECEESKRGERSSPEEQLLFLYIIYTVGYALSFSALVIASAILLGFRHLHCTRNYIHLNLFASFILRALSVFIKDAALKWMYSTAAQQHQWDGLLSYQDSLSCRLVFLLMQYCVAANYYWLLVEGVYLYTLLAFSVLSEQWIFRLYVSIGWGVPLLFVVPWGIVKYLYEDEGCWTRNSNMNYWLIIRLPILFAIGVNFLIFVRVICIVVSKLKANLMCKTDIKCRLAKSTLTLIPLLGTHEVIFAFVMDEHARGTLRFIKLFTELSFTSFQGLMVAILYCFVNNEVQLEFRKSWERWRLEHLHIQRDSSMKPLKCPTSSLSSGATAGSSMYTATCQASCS

## tirzepatide (peptide)
[1]
  CBA potency GLP-1R; P1372 + tirzepatide; D 0: 9.3 pM
  CBA potency GLP-1R; P1372 + tirzepatide; D 7 2-8°C: 13 pM
  CBA potency GLP-1R; P1372 + tirzepatide; D 7 RT: 12 pM
  CBA potency GLP-1R; P1372 + tirzepatide; D 14 RT: 13 pM
  CBA potency GLP-1R; P1372 + tirzepatide; D 28 2-8°C: 14 pM
  CBA potency GLP-1R; P1372 + tirzepatide; D 28 RT: 13 pM
  CBA potency GLP-1R; P1372 + tirzepatide; D 56 2-8°C: 7.4 pM
  CBA potency GLP-1R; P1372 + tirzepatide; D 56 RT: 7.7 pM
  CBA potency GLP-1R; Tirzepatide alone; D 0: 11 pM
  CBA potency GLP-1R; Tirzepatide alone; D 7 2-8°C: 11 pM
  CBA potency GLP-1R; Tirzepatide alone; D 7 RT: 13 pM
  CBA potency GLP-1R; Tirzepatide alone; D 14 2-8°C: 17 pM
  CBA potency GLP-1R; Tirzepatide alone; D 14 RT: 23 pM
  CBA potency GLP-1R; Tirzepatide alone; D 28 2-8°C: 14 pM
  CBA potency GLP-1R; Tirzepatide alone; D 28 RT: 12 pM
  CBA potency GLP-1R; Tirzepatide alone; D 56 2-8°C: 7 pM
  CBA potency GLP-1R; Tirzepatide alone; D 56 RT: 6.7 pM
[2]
  CBA potency GIPR; P1372 + tirzepatide; D 0: 1.5 pM
  CBA potency GIPR; P1372 + tirzepatide; D 7 2-8°C: 1.7 pM
  CBA potency GIPR; P1372 + tirzepatide; D 7 RT: 2.1 pM
  CBA potency GIPR; P1372 + tirzepatide; D 14 2-8°C: 1.5 pM
  CBA potency GIPR; P1372 + tirzepatide; D 14 RT: 1.8 pM
  CBA potency GIPR; P1372 + tirzepatide; D 28 2-8°C: 2 pM
  CBA potency GIPR; P1372 + tirzepatide; D 28 RT: 2.8 pM
  CBA potency GIPR; P1372 + tirzepatide; D 56 2-8°C: 1.6 pM
  CBA potency GIPR; P1372 + tirzepatide; D 56 RT: 1.7 pM
  CBA potency GIPR; Tirzepatide alone; D 0: 1.6 pM
  CBA potency GIPR; Tirzepatide alone; D 7 2-8°C: 2.8 pM
  CBA potency GIPR; Tirzepatide alone; D 7 RT: 2.8 pM
  CBA potency GIPR; Tirzepatide alone; D 14 2-8°C: 2.2 pM
  CBA potency GIPR; Tirzepatide alone; D 14 RT: 1.7 pM
  CBA potency GIPR; Tirzepatide alone; D 28 2-8°C: 2.2 pM
  CBA potency GIPR; Tirzepatide alone; D 28 RT: 2.1 pM
  CBA potency GIPR; Tirzepatide alone; D 56 2-8°C: 1.5 pM
  CBA potency GIPR; Tirzepatide alone; D 56 RT: 1.5 pM
[3]
  CBA potency GLP-1R; P1372 + tirzepatide; D 0: 5.3 pM
  CBA potency GLP-1R; P1372 + tirzepatide; D 7 2-8°C: 3.2 pM
  CBA potency GLP-1R; P1372 + tirzepatide; D 7 RT: 3.3 pM
  CBA potency GLP-1R; P1372 + tirzepatide; D 14 2-8°C: 2.9 pM
  CBA potency GLP-1R; P1372 + tirzepatide; D 14 RT: 2.8 pM
  CBA potency GLP-1R; P1372 + tirzepatide; D 28 2-8°C: 5.5 pM
  CBA potency GLP-1R; P1372 + tirzepatide; D 28 RT: 5.4 pM
  CBA potency GLP-1R; P1372 + tirzepatide; D 56 2-8°C: 9.3 pM
  CBA potency GLP-1R; P1372 + tirzepatide; D 56 RT: 10 pM
  CBA potency GLP-1R; Tirzepatide alone; D 0: 4.3 pM
  CBA potency GLP-1R; Tirzepatide alone; D 7 2-8°C: 4.6 pM
  CBA potency GLP-1R; Tirzepatide alone; D 7 RT: 3.7 pM
  CBA potency GLP-1R; Tirzepatide alone; D 14 2-8°C: 2.4 pM
  CBA potency GLP-1R; Tirzepatide alone; D 14 RT: 3.3 pM
  CBA potency GLP-1R; Tirzepatide alone; D 28 2-8°C: 5.6 pM
  CBA potency GLP-1R; Tirzepatide alone; D 28 RT: 5 pM
  CBA potency GLP-1R; Tirzepatide alone; D 56 2-8°C: 8.3 pM
  CBA potency GLP-1R; Tirzepatide alone; D 56 RT: 8.4 pM
[4]
  CBA potency GIPR; P1372 + tirzepatide; D 0: 1.3 pM
  CBA potency GIPR; P1372 + tirzepatide; D 7 2-8°C: 1 pM
  CBA potency GIPR; P1372 + tirzepatide; D 7 RT: 0.99 pM
  CBA potency GIPR; P1372 + tirzepatide; D 14 2-8°C: 0.98 pM
  CBA potency GIPR; P1372 + tirzepatide; D 14 RT: 1 pM
  CBA potency GIPR; P1372 + tirzepatide; D 28 2-8°C: 1.3 pM
  CBA potency GIPR; P1372 + tirzepatide; D 28 RT: 1.5 pM
  CBA potency GIPR; P1372 + tirzepatide; D 56 2-8°C: 1.9 pM
  CBA potency GIPR; Tirzepatide alone; D 0: 1.5 pM
  CBA potency GIPR; Tirzepatide alone; D 7 2-8°C: 1.1 pM
  CBA potency GIPR; Tirzepatide alone; D 7 RT: 1.2 pM
  CBA potency GIPR; Tirzepatide alone; D 14 2-8°C: 0.84 pM
  CBA potency GIPR; Tirzepatide alone; D 14 RT: 0.82 pM
  CBA potency GIPR; Tirzepatide alone; D 28 2-8°C: 1.6 pM
  CBA potency GIPR; Tirzepatide alone; D 28 RT: 1.4 pM
  CBA potency GIPR; Tirzepatide alone; D 56 2-8°C: 1.9 pM
  CBA potency GIPR; Tirzepatide alone; D 56 RT: 2 pM

## tirzepatide [reference compound]
DIO mice; DIO mice, 21 days s.c., P1307 20 mg/kg weekly, P1229 40 mg/kg twice weekly, semaglutide 40 μg/kg daily, tirzepatide 45 μg/kg daily, alone or combined
  Body weight (% change from baseline): −26.8%
DIO mice; DIO mice, D21
  visceral, epididymal, pericardial, peri-renal, and retroperitoneal white adipose tissue weights: significantly decreased all white adipose tissue weights
DIO mice; DIO mice, D21, P1229 with or without caloric restriction
  gastrocnemius and tibialis anterior weights: no significant effect on muscle weights
DIO mice
  Fat mass (% change from baseline): −46.2%
  Lean mass (% change from baseline): −14.5%
DIO mice; listed as tirzepatide
  Fat mass (% change from baseline): −46.2%
  Lean mass (% change from baseline): −14.5%
